Measured values as given in publication doi:10.1101/2021.11.12.468217 (bioRxiv, 2021).
Positions count from the first letter of the chain named. Names may count otherwise. Blank lines part the entries; values can stand above or below the binder they belong to.

Columns and labels:
[1] = target: T1, DesKC_H188E, DesKC trapped in the phosphotransferase state (Bacillus subtilis, UniProt O34757, H188E); assay: crystal structure
T1 sequence: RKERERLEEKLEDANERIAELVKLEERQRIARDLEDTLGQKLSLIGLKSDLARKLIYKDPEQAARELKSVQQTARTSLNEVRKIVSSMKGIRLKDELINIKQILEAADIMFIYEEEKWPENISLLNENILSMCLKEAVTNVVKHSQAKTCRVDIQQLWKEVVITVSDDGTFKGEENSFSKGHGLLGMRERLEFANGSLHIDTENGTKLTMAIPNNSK

[2] = target: the molecule itself
[3] = target: the molecule itself; assay: SEC

binding result [1]: binds
B1: DesR_REC-Q10A, receiver domain of DesR with Q10A, as crystallised with DesKC_H188E (domain or fragment)
chain: MISIFIAEDAQMLLGALGSLLNLEDDMEVVGKGTTGQDAVDFVKKRQPDVCIMDIEMPGKTGLEAAEELKDTGCKIIILTTFARPGYFQRAIKAGVKGYLLKDSPSEELANAIRSVMNGKRIYAPELMEDLYSEA

B2: Phosphorylated DesR_REC-Q10A (domain or fragment)
chain: B1 chain
Kd [2]: 1440 nM
fold increase of the KD of dimerization against wild type P~RR [2]: 4 fold

B3: Phosphorylated DesR-REC (P~DesRREC), wild type (domain or fragment)
chain: B1 chain with A10Q
binding result [3]: binds
